Biological target: ERK5ΔC385–399 (human) (UniProt Q13164)
Experiment: fluorescence polarisation

Sequence of MKK5 PB1-D construct (16–130), unlabeled (Q13163 16-130): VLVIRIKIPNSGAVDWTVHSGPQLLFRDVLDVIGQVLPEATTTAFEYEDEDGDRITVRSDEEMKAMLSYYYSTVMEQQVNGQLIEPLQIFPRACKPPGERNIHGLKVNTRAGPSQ

Substance: MKK5 PB1-D construct (16–130), unlabeled (from UniProt Q13163 16-130) (domain or fragment)
- fold reduction of binding affinity against the wild-type pair: 20 fold
